Experimental data: publication PMC8298264, “Function of cofactor Akirin2 in the regulation of gene expression in model human neutrophil-like HL60 cells” (Bioscience Reports, 2021)

B1: sp¦Q09161¦NCBP1_HUMAN (protein, UniProt Q09161 1-790, looked up)
Nuclear cap-binding protein …: MSRRRHSDENDGGQPHKRRKTSDANETEDHLESLICKVGEKSACSLESNLEGLAGVLEADLPNYKSKILRLLCTVARLLPEKLTIYTTLVGLLNARNYNFGGEFVEAMIRQLKESLKANNYNEAVYLVRFLSDLVNCHVIAAPSMVAMFENFVSVTQEEDVPQVRRDWYVYAFLSSLPWVGKELYEKKDAEMDRIFANTESYLKRRQKTHVPMLQVWTADKPHPQEEYLDCLWAQIQKLKKDRWQERHILRPYLAFDSILCEALQHNLPPFTPPPHTEDSVYPMPRVIFRMFDYTDDPEGPVMPGSHSVERFVIEENLHCIIKSHWKERKTCAAQLVSYPGKNKIPLNYHIVEVIFAELFQLPAPPHIDVMYTTLLIELCKLQPGSLPQVLAQATEMLYMRLDTMNTTCVDRFINWFSHHLSNFQFRWSWEDWSDCLSQDPESPKPKFVREVLEKCMRLSYHQRILDIVPPTFSALCPANPTCIYKYGDESSNSLPGHSVALCLAVAFKSKATNDEIFSILKDVPNPNQDDDDDEGFSFNPLKIEVFVQTLLHLAAKSFSHSFSALAKFHEVFKTLAESDEGKLHVLRVMFEVWRNHPQMIAVLVDKMIRTQIVDCAAVANWIFSSELSRDFTRLFVWEILHSTIRKMNKHVLKIQKELEEAKEKLARQHKRRSDDDDRSSDRKDGVLEEQIERLQEKVESAQSEQKNLFLVIFQRFIMILTEHLVRCETDGTSVLTPWYKNCIERLQQIFLQHHQIIQQYMVTLENLLFTAELDPHILAVFQQFCALQA
B2: sp¦O75663¦TIPRL_HUMAN (protein, UniProt O75663 1-272, looked up)
TIP41-like protein: MMIHGFQSSHRDFCFGPWKLTASKTHIMKSADVEKLADELHMPSLPEMMFGDNVLRIQHGSGFGIEFNATDALRCVNNYQGMLKVACAEEWQESRTEGEHSKEVIKPYDWTYTTDYKGTLLGESLKLKVVPTTDHIDTEKLKAREQIKFFEEVLLFEDELHDHGVSSLSVKIRVMPSSFFLLLRFFLRIDGVLIRMNDTRLYHEADKTYMLREYTSRESKISSLMHVPPSLFTEPNEISQYLPIKEAVCEKLIFPERIDPNPADSQKSTQVE
B3: sp¦Q9Y5J7¦TIM9_HUMAN (protein, UniProt Q9Y5J7 2-89, looked up)
Mitochondrial import inner …: AAQIPESDQIKQFKEFLGTYNKLTETCFLDCVKDFTTREVKPEETTCSEHCLQKYLKMTQRISMRFQEYHIQQNEALAAKAGLLGQPR
B4: sp¦P49588¦SYAC_HUMAN (protein, UniProt P49588 1-968, looked up)
Alanine--tRNA ligase, …: MDSTLTASEIRQRFIDFFKRNEHTYVHSSATIPLDDPTLLFANAGMNQFKPIFLNTIDPSHPMAKLSRAANTQKCIRAGGKHNDLDDVGKDVYHHTFFEMLGSWSFGDYFKELACKMALELLTQEFGIPIERLYVTYFGGDEAAGLEADLECKQIWQNLGLDDTKILPGNMKDNFWEMGDTGPCGPCSEIHYDRIGGRDAAHLVNQDDPNVLEIWNLVFIQYNREADGILKPLPKKSIDTGMGLERLVSVLQNKMSNYDTDLFVPYFEAIQKGTGARPYTGKVGAEDADGIDMAYRVLADHARTITVALADGGRPDNTGRGYVLRRILRRAVRYAHEKLNASRGFFATLVDVVVQSLGDAFPELKKDPDMVKDIINEEEVQFLKTLSRGRRILDRKIQSLGDSKTIPGDTAWLLYDTYGFPVDLTGLIAEEKGLVVDMDGFEEERKLAQLKSQGKGAGGEDLIMLDIYAIEELRARGLEVTDDSPKYNYHLDSSGSYVFENTVATVMALRREKMFVEEVSTGQECGVVLDKTCFYAEQGGQIYDEGYLVKVDDSSEDKTEFTVKNAQVRGGYVLHIGTIYGDLKVGDQVWLFIDEPRRRPIMSNHTATHILNFALRSVLGEADQKGSLVAPDRLRFDFTAKGAMSTQQIKKAEEIANEMIEAAKAVYTQDCPLAAAKAIQGLRAVFDETYPDPVRVVSIGVPVSELLDDPSGPAGSLTSVEFCGGTHLRNSSHAGAFVIVTEEAIAKGIRRIVAVTGAEAQKALRKAESLKKCLSVMEAKVKAQTAPNKDVQREIADLGEALATAVIPQWQKDELRETLKSLKKVMDDLDRASKADVQKRVLEKTKQFIDSNPNQPLVILEMESGASAKALNEALKLFKMHSPQTSAMLFTVDNEAGKITCLCQVPQNAANRGLKASEWVQQVSGLMDGKGGGKDVSAQATGKNVGCLQEALQLATSFAQLRLGDVKN
B5: sp¦P08559¦ODPA_HUMAN (protein, UniProt P08559 30-390, looked up)
Pyruvate dehydrogenase E1 …: FANDATFEIKKCDLHRLEEGPPVTTVLTREDGLKYYRMMQTVRRMELKADQLYKQKIIRGFCHLCDGQEACCVGLEAGINPTDHLITAYRAHGFTFTRGLSVREILAELTGRKGGCAKGKGGSMHMYAKNFYGGNGIVGAQVPLGAGIALACKYNGKDEVCLTLYGDGAANQGQIFEAYNMAALWKLPCIFICENNRYGMGTSVERAAASTDYYKRGDFIPGLRVDGMDILCVREATRFAAAYCRSGKGPILMELQTYRYHGHSMSDPGVSYRTREEIQEVRSKSDPIMLLKDRMVNSNLASVEELKEIDVEVRKEIEDAAQFATADPEPPLEELGYHIYSSDPPFEVRGANQWIKFKSVS
B6: sp¦Q15007¦FL2D_HUMAN (protein, UniProt Q15007 1-396, looked up)
Pre-mRNA-splicing regulator …: MTNEEPLPKKVRLSETDFKVMARDELILRWKQYEAYVQALEGKYTDLNSNDVTGLRESEEKLKQQQQESARRENILVMRLATKEQEMQECTTQIQYLKQVQQPSVAQLRSTMVDPAINLFFLKMKGELEQTKDKLEQAQNELSAWKFTPDSQTGKKLMAKCRMLIQENQELGRQLSQGRIAQLEAELALQKKYSEELKSSQDELNDFIIQLDEEVEGMQSTILVLQQQLKETRQQLAQYQQQQSQASAPSTSRTTASEPVEQSEATSKDCSRLTNGPSNGSSSRQRTSGSGFHREGNTTEDDFPSSPGNGNKSSNSSEERTGRGGSGYVNQLSAGYESVDSPTGSENSLTHQSNDTDSSHDPQEEKAVSGKGNRTVGSRHVQNGLDSSVNVQGSVL
B7: sp¦Q96JJ7¦TMX3_HUMAN (protein, UniProt Q96JJ7 25-454, looked up)
Protein disulfide-isomerase …: KGFVEDLDESFKENRNDDIWLVDFYAPWCGHCKKLEPIWNEVGLEMKSIGSPVKVGKMDATSYSSIASEFGVRGYPTIKLLKGDLAYNYRGPRTKDDIIEFAHRVSGALIRPLPSQQMFEHMQKRHRVFFVYVGGESPLKEKYIDAASELIVYTYFFSASEEVVPEYVTLKEMPAVLVFKDETYFVYDEYEDGDLSSWINRERFQNYLAMDGFLLYELGDTGKLVALAVIDEKNTSVEHTRLKSIIQEVARDYRDLFHRDFQFGHMDGNDYINTLLMDELTVPTVVVLNTSNQQYFLLDRQIKNVEDMVQFINNILDGTVEAQGGDSILQRLKRIVFDAKSTIVSIFKSSPLMGCFLFGLPLGVISIMCYGIYTADTDGGYIEERYEVSKSENENQEQIEESKEQQEPSSGGSVVPTVQEPKDVLEKKKD
B8: sp¦O95104¦SCAF4_HUMAN (protein, UniProt O95104 1-1147, looked up)
SR-related and CTD-associated …: MDAVNAFNQELFSLMDMKPPISRAKMILITKAAIKAIKLYKHVVQIVEKFIKKCKPEYKVPGLYVIDSIVRQSRHQFGTDKDVFGPRFSKNITATFQYLYLCPSEDKSKIVRVLNLWQKNGVFKIEIIQPLLDMAAGTSNAAPVAENVTNNEGSPPPPVKVSSEPPTQATPNSVPAVPQLPSSDAFAAVAQLFQTTQGQQLQQILQTFQQPPKPQSPALDNAVMAQVQAITAQLKTTPTQPSEQKAAFPPPEQKTAFDKKLLDRFDYDDEPEAVEESKKEDTTAVTTTAPAAAVPPAPTATVPAAAAPAAASPPPPQAPFGFPGDGMQQPAYTQHQNMDQFQPRMMGIQQDPMHHQVPLPPNGQMPGFGLLPTPPFPPMAQPVIPPTPPVQQPFQASFQAQNEPLTQKPHQQEMEVEQPCIQEVKRHMSDNRKSRSRSASRSPKRRRSRSGSRSRRSRHRRSRSRSRDRRRHSPRSRSQERRDREKERERRQKGLPQVKPETASVCSTTLWVGQLDKRTTQQDVASLLEEFGPIESINMIPPRGCAYIVMVHRQDAYRALQKLSRGNYKVNQKSIKIAWALNKGIKADYKQYWDVELGVTYIPWDKVKPEELESFCEGGMLDSDTLNPDWKGIPKKPENEVAQNGGAETSHTEPVSPIPKPLPVPVPPIPVPAPITVPPPQVPPHQPGPPVVGALQPPAFTPPLGIPPPGFGPGVPPPPPPPPFLRPGFNPMHLPPGFLPPGPPPPITPPVSIPPPHTPPISIPNSTIAGINEDTTKDLSIGNPIPTVVSGARGNAESGDSVKMYGSAVPPAAPTNLPTPPVTQPVSLLGTQGVAPGPVIGLQAPSTGLLGARPGLIPLQRPPGMPPPHLQRFPLMPPRPMPPHMMHRGPPPGPGGFAMPPPHGMKGPFPPHGPFVRPGGMPGLGGPGPGPGGPEDRDGRQQPPQQPQQQPQPQAPQQPQQQQQQQPPPSQQPPPTQQQPQQFRNDNRQQFNSGRDQERFGRRSFGNRVENDRERYGNRNDDRDNSNRDRREWGRRSPDRDRHRDLEERNRRSSGHRDRERDSRDRESRREKEEARGKEKPEVTDRAGGNKTVEPPISQVGNVDTASELEKGVSEAAVLKPSEELPAEATSSVEPEKDSGSAAEAPR
B9: sp¦Q9UJZ1¦STML2_HUMAN (protein, UniProt Q9UJZ1 29-356, looked up)
Stomatin-like protein 2, …: SSGLPRNTVVLFVPQQEAWVVERMGRFHRILEPGLNILIPVLDRIRYVQSLKEIVINVPEQSAVTLDNVTLQIDGVLYLRIMDPYKASYGVEDPEYAVTQLAQTTMRSELGKLSLDKVFRERESLNASIVDAINQAADCWGIRCLRYEIKDIHVPPRVKESMQMQVEAERRKRATVLESEGTRESAINVAEGKKQAQILASEAEKAEQINQAAGEASAVLAKAKAKAEAIRILAAALTQHNGDAAASLTVAEQYVSAFSKLAKDSNTILLPSNPGDVTSMVAQAMGVYGALTKAPVPGTPDSLSSGSSRDVQGTDASLDEELDRVKMS
B10: sp¦O00567¦NOP56_HUMAN (protein, UniProt O00567 1-594, looked up)
Nucleolar protein 56: MVLLHVLFEHAVGYALLALKEVEEISLLQPQVEESVLNLGKFHSIVRLVAFCPFASSQVALENANAVSEGVVHEDLRLLLETHLPSKKKKVLLGVGDPKIGAAIQEELGYNCQTGGVIAEILRGVRLHFHNLVKGLTDLSACKAQLGLGHSYSRAKVKFNVNRVDNMIIQSISLLDQLDKDINTFSMRVREWYGYHFPELVKIINDNATYCRLAQFIGNRRELNEDKLEKLEELTMDGAKAKAILDASRSSMGMDISAIDLINIESFSSRVVSLSEYRQSLHTYLRSKMSQVAPSLSALIGEAVGARLIAHAGSLTNLAKYPASTVQILGAEKALFRALKTRGNTPKYGLIFHSTFIGRAAAKNKGRISRYLANKCSIASRIDCFSEVPTSVFGEKLREQVEERLSFYETGEIPRKNLDVMKEAMVQAEEAAAEITRKLEKQEKKRLKKEKKRLAALALASSENSSSTPEECEEMSEKPKKKKKQKPQEVPQENGMEDPSISFSKPKKKKSFSKEELMSSDLEETAGSTSIPKRKKSTPKEETVNDPEEAGHRSGSKKKRKFSKEEPVSSGPEEAVGKSSSKKKKKFHKASQED

System: human HL60 cells
Assay: SWATH-MS proteomics, differential protein representation, akirin2 KO vs WT HL60 cells
Format: cell-based
Conditions: akirin2 KO vs WT HL60 cells, sheet "Under-represented in KO"
Procedure, shortened: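 WT and akirin2 KO HL60 lysates (150 µg, n=3 biological replicates) were FASP trypsin-digested and desalted. A spectral library was built by IDA from 3 µg digests, then 5 µg per sample went to variable-window SWATH DIA over a 120-min 5–30% acetonitrile gradient. Identifications were accepted at 1% global FDR, with total-area-sum normalization.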

| Molecule | Fold Change | Log (Fold Change) | Fold Change (KO vs WT) | Log (Fold Change) (KO vs WT) |
| --- | --- | --- | --- | --- |
| B1 | 0.2701 | -0.5684 | – | – |
| B2 | – | – | 0.5915 | -0.228 |
| B3 | – | – | 0.5881 | -0.2305 |
| B4 | – | – | 0.5997 | -0.2221 |
| B5 | – | – | 0.6031 | -0.2196 |
| B6 | – | – | 0.593 | -0.227 |
| B7 | 0.267 | -0.5736 | – | – |
| B8 | – | – | 0.586 | -0.2321 |
| B9 | – | – | 0.6025 | -0.22 |
| B10 | – | – | 0.6041 | -0.2189 |
